Reference: PMC6284106

Columns and labels:
[1] = target: human IL-2Rβγ heterodimeric Fc fusion (human) (UniProt P14784); assay: SPR; Biacore T200; biotinylated IL2Rβγ-Fc heterodimer immobilised on streptavidin chips; fusion proteins injected 1.2-300 nM for 2 min, dissociation 10 min; regeneration 3 M MgCl2; global 1:1 model, 'apparent' KD (bivalent binding of the dimeric fusions)
[2] = target: cynomolgus IL-2Rβγ heterodimeric Fc fusion (cynomolgus) (UniProt Q38J85); assay: as above
[3] = target: human IL-2Rβγ heterodimeric Fc fusion (human) (UniProt P14784)
[4] = target: human IL-2Rα, monomeric, his-tagged (human) (UniProt P01589); assay: SPR; Biacore T200; monomeric his-tagged IL-2Rα immobilised by amine coupling on CM5 chips; 2-fold dilution series (0.41 nM-300 nM) of the IL-2 fusion protein injected for 90 s, dissociation 3 min; regeneration 10 mM glycine pH 1.5; steady state model
Chain of UniProt P01589 (P01589 22-272): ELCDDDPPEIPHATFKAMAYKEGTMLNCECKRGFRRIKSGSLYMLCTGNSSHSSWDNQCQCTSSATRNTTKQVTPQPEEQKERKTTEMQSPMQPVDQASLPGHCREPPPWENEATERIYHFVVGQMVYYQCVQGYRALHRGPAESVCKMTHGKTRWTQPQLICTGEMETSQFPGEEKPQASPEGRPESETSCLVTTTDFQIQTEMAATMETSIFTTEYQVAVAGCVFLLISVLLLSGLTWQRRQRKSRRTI

[5] = target: cynomolgus IL-2Rα, monomeric, his-tagged (cynomolgus); assay: as above
[6] = target: human IL-2Rβγ heterodimeric Fc fusion (human) (UniProt P14784); remark: listed apart in the source

Substance	Kd [1]	Kd [2]	Kd [4]	Kd [5]	also measured
IgG-(IL-2)2 (from UniProt P60568 21-153)	0.003 nM	0.04 nM			EC50 of pSTAT5 induction in memory and naïve Tregs, human whole blood [3]: 0.3 pM
IgG-(IL-2)2 (wild-type dimer: two human IL-2 fused to a non-targeted, effector-silent human IgG1) (from UniProt P60568 21-153)			5 nM	15 nM	
IgG-(IL-2N88D)2 (from UniProt P60568 21-153)	0.24 nM	0.57 nM			EC50 of pSTAT5 induction in CD4+ effector memory T cells, human whole blood [6]: > 10000 pM; EC50 of pSTAT5 induction in CD4+ naïve Tregs, human whole blood [6]: 18 pM; EC50 of pSTAT5 induction in CD56bright NK cells, human whole blood [6]: > 1000 pM
IgG-(IL-2N88D)2 (two human IL-2 N88D muteins fused to a non-targeted, effector-silent human IgG1) (from UniProt P60568 21-153)			22 nM	30 nM	
IgG-IL-2 (from UniProt P60568 21-153)	0.04 nM	0.18 nM			
IgG-IL-2 (wild-type monomer: one human IL-2 fused to a non-targeted, effector-silent human IgG1) (from UniProt P60568 21-153)			15 nM	30 nM	
